Laboratory results published in patent US20230212319A1, “NOVEL ANTIGEN BINDING DOMAINS AND SYNTHETIC ANTIGEN RECEPTORS INCORPORATING THE SAME” (University of Southern California, priority 2020, published 2023).

B1: 22652 (protein)
chain: MALPVTALLLPLALLLHAARPDIQMTQSPSSLSASVGDRVTITCKASDHINNWLAWYQQKPGQAPKLLIYGATTLETGVPSRFSGSGSGTDYTLTISSLQPEDFATYYCQQSWNTPWTFGQGTKLEIKRLEVSPKPTIFLPSIAETKLQKAGTYLCLLEKFFPDVIKIHWQEKKSNTILGSQEGNTMKTNDTYMKFSWLTVPEKSLDKEHRCIVRHENNKNGVDQEIIFPPIKTDVITMDPKDNCSKDANDTLLLQLTNTSAYYMYLLLLLKSVVYFAIITCCLLRRTAFCCNGEKSRAKRSGSGATNFSLLKQAGDVEENPGPTSMDWIWRILFLVGAATGAHSFEQVQLQQPGAELVKPGASVKMSCKASGYAFSSYWINWMKQKPGQGLEWIGQIYPGDGDTNYNGKFKGRATLTADTSSSTAYMQLSSLTSEDSAVYFCARSITTVVGCAMDYWGQGTSVTVSSTRPHTKPSVFVMKNGTNVACLVKEFYPKDIRINLVSSKKITEFDPAIVISPSGKYNAVKLGKYEDSNSVTCSVQHDNKTVHSTDFEVKTDSTDHVKPKETENTKQPSKSCHKPKAIVHTEKVNMMSLTVLGLRMLFAKTVAVNFLLTAKLFFLRAKRSGSGVKQTLNFDLLKLAGDVESNPGPSRGHMTEYKPTVRLATRDDVPRAVRTLAAAFADYPATRHTVDPDRHIERVTELQELFLTRVGLDIGKVWVADDGAAVAVWTTPESVEAGAVFAEIGPRMAELSGSRLAAQQQMEGLLAPHRPKEPAWFLATVGVSPDHQGKGLGSAVVLPGVEAAERAGVPAFLETSAPRNLPFYERLGFTVTADVEVPEGPRTWCMTRKPGA
B2: 9970 (protein)
chain: MALPVTALLLPLALLLHAARPDIVMTQSHKFMSTSVGDRVSIICKASQDVGTAVDWYQQKPGQSPKLLIYWASTRHTGVPDRFTGSGSGTDFTLAITNVQSEDLADYFCQQYNSYPLTFGAGTKLEIKRLEDLKNVFPPEVAVFEPSEAEISHTQKATLVCLATGFYPDHVELSWWVNGKEVHSGVCTDPQPLKEQPALNDSRYCLSSRLRVSATFWQNPRNHFRCQVQFYGLSENDEWTQDRAKPVTQIVSAEAWGRADCGFTSESYQQGVLSATILYEILLGKATLYAVLVSALVLMAMVKRKDSRGRAKRSGSGATNFSLLKQAGDVEENPGPTSMDWIWRILFLVGAATGAHSFEEVQLVESGGGLVQPGGSLRLSCAASGYTFTEYTIHWVRQAPGKGLEWVANINPNNGGTTYNQKFEDRFTISRDNSKNTLYLQMNSLRAEDTAVYYCARGWNFDYWGQGTLVTVSSTRIQNPDPAVYQLRDSKSSDKSVCLFTDFDSQTNVSQSKDSDVYITDKCVLDMRSMDFKSNSAVAWSNKSDFACANAFNNSIIPEDTFFPSPESSCDVKLVEKSFETDTNLNFQNLSVIGFRILLLKVAGFNLLMTLRLWSS
modifications: Synthetic Polynucloetide
B3: 22651 (protein)
chain: MALPVTALLLPLALLLHAARPDIQMTQSPSSLSASVGDRVTITCKASDHINNWLAWYQQKPGQAPKLLIYGATTLETGVPSRFSGSGSGTDYTLTISSLQPEDFATYYCQQSWNTPWTFGQGTKLEIKRLEADVSPKPTIFLPSIAETKLQKAGTYLCLLEKFFPDVIKIHWQEKKSNTILGSQEGNTMKTNDTYMKFSWLTVPEKSLDKEHRCIVRHENNKNGVDQEIIFPPIKTDVITMDPKDNCSKDANDTLLLQLTNTSAYYMYLLLLLKSVVYFAIITCCLLRRTAFCCNGEKSRAKRSGSGATNFSLLKQAGDVEENPGPTSMDWIWRILFLVGAATGAHSFEQVQLQQPGAELVKPGASVKMSCKASGYAFSSYWINWMKQKPGQGLEWIGQIYPGDGDTNYNGKFKGRATLTADTSSSTAYMQLSSLTSEDSAVYFCARSITTVVGCAMDYWGQGTSVTVSSTRPHTKPSVFVMKNGTNVACLVKEFYPKDIRINLVSSKKITEFDPAIVISPSGKYNAVKLGKYEDSNSVTCSVQHDNKTVHSTDFEVKTDSTDHVKPKETENTKQPSKSCHKPKAIVHTEKVNMMSLTVLGLRMLFAKTVAVNFLLTAKLFFLRAKRSGSGVKQTLNFDLLKLAGDVESNPGPSRGHMTEYKPTVRLATRDDVPRAVRTLAAAFADYPATRHTVDPDRHIERVTELQELFLTRVGLDIGKVWVADDGAAVAVWTTPESVEAGAVFAEIGPRMAELSGSRLAAQQQMEGLLAPHRPKEPAWFLATVGVSPDHQGKGLGSAVVLPGVEAAERAGVPAFLETSAPRNLPFYERLGFTVTADVEVPEGPRTWCMTRKPGA
B4: SEQ ID NO: 22009: two AABD attached in tandem to one of the two TCR constant chains (protein)
chain: MALPVTALLLPLALLLHAARPLEGKPIPNPLLGLDSTGSGEDLKNVFPPEVAVFEPSKAEIAHTQKATLVCLATGFYPDHVELSWWVNGKEVHSGVCTDPQPLKEQPALNDSRYCLSSRLRVSATFWQNPRNHFRCQVQFYGLSENDEWTQDRAKPVTQIVSAEAWGRADCGITSASYHQGVLSATILYEILLGKATLYAVLVSALVLMAMVKRKDSRGRAKRSGSGATNFSLLKQAGDVEENPGPTSTMDWIWRILFLVGAATGAHSQLQLQESGPGLVKPSETLSLTCTVSGGSVSSSSYYWGWIRQPPGKRLELIGSIYYGGSTYFNPSLKSRVTISVDTSKNQFSLKLSSVTAADTAVYYCAGGDTYGPVGQWPSDYRGQGTLVTVSSGGGGSGGGSFEVQLLESGGGLVQPGGSLRLSCAASGFIFSIYAMSWVRQAPGKGLEWVSGISGSGVNTYYADSVKGRFIISRDNSRNTVYLQMNSLRADDTAVYHCANGKGWDGNTWYEDYRGQGTLVTVSSTREQKLISEEDGSGIQNPDPAVYQLRDSKSSDKSVCLFTDFDSQTNVSQSKDSDVYITDKCVLDMRSMDFKSNSAVAWSNKSDFACANAFNNSIIPEDTFFPSSDVPCDVKLVEKSFETDTNLNFQNLSVIGFRILLLKVAGFNLLMTLRLWSSRAKRSGSGVKQTLNFDLLKLAGDVESNPGPSRGHMTEYKPTVRLATRDDVPRAVRTLAAAFADYPATRHTVDPDRHIERVTELQELFLTRVGLDIGKVWVADDGAAVAVWTTPESVEAGAVFAEIGPRMAELSGSRLAAQQQMEGLLAPHRPKEPAWFLATVGVSPDHQGKGLGSAVVLPGVEAAERAGVPAFLETSAPRNLPFYERLGFTVTADVEVPEGPRTWCMTRKPGA
B5: 22641 (protein)
chain: MALPVTALLLPLALLLHAARPDIQMTQSPSSLSASVGDRVTITCKASDHINNWLAWYQQKPGQAPKLLIYGATTLETGVPSRFSGSGSGTDYTLTISSLQPEDFATYYCQQSWNTPWTFGQGTKLEIKRLEAEISHTQKATLVCLATGFYPDHVELSWWVNGKEVHSGVCTDPQPLKEQPALNDSRYCLSSRLRVSATFWQNPRNHFRCQVQFYGLSENDEWTQDRAKPVTQIVSAEAWGRADCGFTSESYQQGVLSATILYEILLGKATLYAVLVSALVLMAMVKRKDSRGRAKRSGSGATNFSLLKQAGDVEENPGPTSMDWIWRILFLVGAATGAHSFEQVQLQQPGAELVKPGASVKMSCKASGYAFSSYWINWMKQKPGQGLEWIGQIYPGDGDTNYNGKFKGRATLTADTSSSTAYMQLSSLTSEDSAVYFCARSITTVVGCAMDYWGQGTSVTVSSTRDKSVCLFTDFDSQTNVSQSKDSDVYITDKCVLDMRSMDFKSNSAVAWSNKSDFACANAFNNSIIPEDTFFPSPESSCDVKLVEKSFETDTNLNFQNLSVIGFRILLLKVAGFNLLMTLRLWSSRAKRSGSGVKQTLNFDLLKLAGDVESNPGPSRGHMTEYKPTVRLATRDDVPRAVRTLAAAFADYPATRHTVDPDRHIERVTELQELFLTRVGLDIGKVWVADDGAAVAVWTTPESVEAGAVFAEIGPRMAELSGSRLAAQQQMEGLLAPHRPKEPAWFLATVGVSPDHQGKGLGSAVVLPGVEAAERAGVPAFLETSAPRNLPFYERLGFTVTADVEVPEGPRTWCMTRKPGA

Columns and labels:
[1] = system: RAJI cells; assay: JNG (Jurkat NFAT-GFP) cells expressing SAR: GFP induction on co-culture with RAJI; settings: CD19 hu-mROO5-1 SIRs with deletion mutants of TCR constant chains; flow cytometry
[2] = system: LNCaP-LucPPe cells; assay: LNCaP-LucPPE xenograft in NSG mice, with rechallenge; format: in vivo; settings: 1 × 10^6 LNCaP-LucPPe s.c., 17 days later 3 × 10^6 T cells i.v., male NSG mice
[3] = system: target antigen-expressing cell line; assay: Jurkat NFAT-GFP (JNG) assay: induction of NFAT promoter driven GFP expression; format: cell-based; settings: SAR-expressing JNG cells co-cultured with cell lines expressing their target antigen(s)
Procedure: Induction ofNFAT promoter driven GFP expression. […] Cellular supernatant is collected and assayed for the induction of cytokines (e.g., IL2).
Cellular supernatant is collected and assayed for the induction of cytokines (e.g., IL2).
JNG (Jurkat cells expressing EGFP under an NFAT promoter) were infected with lentiviral vectors encoding different single chain and multi-chain SARs by spinfection in the presence of 8 µg/ml of Polybrene® (Sigma, Catalog no. H9268). The Jurkat-NFAT-GFP cells are engineered in such a way that the IL-2 promoter, which carries NFAT binding sites, is cloned upstream of the GFP gene. These cells have been used to study signaling via TCR and CAR. The different SARs were stably expressed in Jurkat NFAT-GFP cells by lentiviral mediated gene transfer, followed by selection with puromycin or blasticidin. No drug selection was used in case the construct lacked an antibiotic resistance gene. The SAR-expressing Jurkat-NFAT-GFP cells were cocultured with the target cells at E:T ratio of approximately 1:2 for approximately 4 hours to 18 hours. When the interaction between SIRs and their target antigen results in activation of the NFAT pathway, GFP expression is induced. […] GFP expression was monitored by FACS analysis. The Jurkat-NFAT-GFP (parental) cells were used as control. The structure of different constructs can be determined based on their names. […] The sequence of the other constructs in the table can be similarly determined from their names and by referring to the different Tables of this disclosure that provide the names and SEQ ID NO of the different modules. Alternatively, the composition and modular architecture of the different SAR constructs can be determined from their sequences by bioinformatics tools, including using nucleic acid and amino acids homology searches. A SAR is considered positive in the assay in case the SAR expressing Jurkat-NFAT-GFP cells show greater % GFP positive cells when cultured with the target cell line as compared to parental Jurkat-NFAT-GFP cells. […] In general, the number +/-, +, 2+, 3+, 4+, 5+ refer to approximately 5%, 10%, 20%, 30%, 40% and 50% GFP positive cells. The % of GFP induction in the above assay is dependent not only the relative strength of the SAR but also, among other factors, on the relative level of expression of the SAR in the JNG cells and the relative level of expression of the target antigen in the target cell line. To control for the difference in gene transduction efficiency of the different SAR constructs, the experiment was conducted with JNG cells transduced with SAR constructs co-expressing a drug resistance gene (e.g., puromycin or PAC) followed by drug selection to generate a stable population of SAR-expressing cells. It is to be noted that the drug resistance gene (e.g., PAC) in the SAR constructs is optional and in vivo studies were conducted with SAR constructs lacking the PAC gene.

| Molecule | Jurkat-NFAT ASSA Y: Raji [1] | further results |
| --- | --- | --- |
| B1 | significant residual activity |  |
| B2 |  | tumor control (bioluminescence imaging, caliper tumor volume), LNCaP-LucPPE xenograft [2]: statistically significant and effective tumor control |
| B3 | significant residual activity |  |
| B4 |  | GFP induction / activity in JNG assay [3]: only weak and inconsistent activity |
| B5 | significant GFP induction |  |
